Measurements reported in patent US8735553 (BEIGENE SWITZERLAND, dated 2014).
Changes are numbered by the printed parent chain. Names may count otherwise.

B1: hu326-4A3 Fab (Fab, V domains shown)
VH: QVQLVQSGSELKKPGASVKVSCKASGYTFTNYGMNWVRQAPGQGLKWMGWINNNNAEPTYAQDFRGRFVFSLDTSASTAYLQISSLKTEDTAVYYCARDVMDYWGQGTLVTVSS
VL: DIVLTQSPASLAVSPGQRATITCRASESVDNYGYSFMHWYQQKPGQPPKLLIYRASNLESGVPARFSGSGSGTDFTLTINPVEAEDTANYYCQQSKEYPTFGGGTKVEIK
notes: Fab: VH on human IgG2 CH1 (C232S, C233S, Kabat) with C-terminal c-Myc-His8 tag; also called hu326-4A3 (Fab version)
B2: hu326-3G1 Fab (Fab, V domains shown)
VH: B1 VH with S9P, A56G
VL: B1 VL with G72R, E85N
notes: Fab: VH on human IgG2 CH1 (C232S, C233S, Kabat) with C-terminal c-Myc-His8 tag

Experiments:
[1] = biological target: T1, wild-type human PD-1 recombinant protein (PD-1/His or PD-1/Fc, not said which) (human, UniProt Q15116 21-168); assay: ELISA on coated recombinant PD-1; cell carries the * mark (Fab version); ELISA cell marked *
T1 construct: also called WT PD-1
T1 sequence (Q15116 21-168 limits assumed): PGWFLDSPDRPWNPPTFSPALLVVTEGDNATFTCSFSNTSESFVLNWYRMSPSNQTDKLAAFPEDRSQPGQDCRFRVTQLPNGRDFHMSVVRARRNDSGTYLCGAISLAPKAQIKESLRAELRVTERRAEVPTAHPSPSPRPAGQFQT

[2] = biological target: T2, PD-1-EC/His (human, UniProt Q15116 21-168); assay: SPR (BIAcore T-200), human PD-1/His coupled to CM5 chip, Fab injected
T2 construct: AA 1-168 includes the signal peptide; also called PD-1/His; human PD-1/His
T2 sequence (Q15116 21-168): as the sequence (Q15116 21-168 limits assumed) above
Protocol: For affinity determinations of anti-PD-1 Fabs, SPR assays were used with the BIAcore™ T-200 instrument (GE Life Sciences). […] Association rates ($kon$) and dissociation rates ($koff$) were calculated using the one-to-one Langmuir binding model (BIA Evaluation Software, GE Life Sciences). The equilibrium dissociation constant (K_d) was calculated as the ratio $koff/kon$.

| Binder | EC50 [1] [µg/mL] | Kd [2] [nM] |
| --- | --- | --- |
| B1 | 0.091 |  |
| B2 |  | 1 |
